Data published in article PMC11369174 (Molecular Systems Biology, 2024).
Where no end group is shown, it is not given here.

Columns and labels:
Details in all cases: both partners purified
[1] = target: T1, clathrin N-terminal domain (CLTC NTD) (human); assay: fluorescence polarisation; displacement: unlabelled peptide titrated onto a complex of FITC-labelled peptide (10 nM) and protein domain (1-2x KD); 50 mM sodium phosphate buffer pH 7.4 (CASK: plus 100 mM NaCl); KD calculated from IC50; technical triplets
T1 chain: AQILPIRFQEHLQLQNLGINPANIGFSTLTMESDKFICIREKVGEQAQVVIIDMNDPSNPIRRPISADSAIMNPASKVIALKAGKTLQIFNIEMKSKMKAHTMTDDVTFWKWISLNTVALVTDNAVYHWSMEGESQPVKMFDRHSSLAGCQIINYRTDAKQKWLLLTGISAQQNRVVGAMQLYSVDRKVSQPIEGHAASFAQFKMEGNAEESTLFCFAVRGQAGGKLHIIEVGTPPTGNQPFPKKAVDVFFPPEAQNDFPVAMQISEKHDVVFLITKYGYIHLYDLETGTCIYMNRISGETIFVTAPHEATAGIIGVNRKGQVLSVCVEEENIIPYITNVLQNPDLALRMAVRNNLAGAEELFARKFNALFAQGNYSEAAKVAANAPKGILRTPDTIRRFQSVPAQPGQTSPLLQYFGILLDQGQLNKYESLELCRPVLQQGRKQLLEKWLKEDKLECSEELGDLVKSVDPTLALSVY

[2] = target: T2, Ras-GTPase-activating protein-binding protein 2 (G3BP2) NTF2 domain (human, UniProt Q9UN86 11-133); assay: as above
T2 construct: G3BP2, NTF2 domain; limits in Dataset EV2; source: E. coli BL21 DE (Gold), purified
T2 sequence (looked up): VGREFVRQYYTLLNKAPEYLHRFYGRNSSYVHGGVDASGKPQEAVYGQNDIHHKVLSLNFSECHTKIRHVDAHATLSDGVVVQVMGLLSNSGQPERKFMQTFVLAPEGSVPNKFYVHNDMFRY

[3] = target: T3, peripheral plasma membrane protein CASK (CASK) kinase domain (human, UniProt O14936 12-276); assay: as above
T3 construct: CASK, kinase domain; limits in Dataset EV2; source: E. coli Rosetta, purified
T3 sequence (looked up): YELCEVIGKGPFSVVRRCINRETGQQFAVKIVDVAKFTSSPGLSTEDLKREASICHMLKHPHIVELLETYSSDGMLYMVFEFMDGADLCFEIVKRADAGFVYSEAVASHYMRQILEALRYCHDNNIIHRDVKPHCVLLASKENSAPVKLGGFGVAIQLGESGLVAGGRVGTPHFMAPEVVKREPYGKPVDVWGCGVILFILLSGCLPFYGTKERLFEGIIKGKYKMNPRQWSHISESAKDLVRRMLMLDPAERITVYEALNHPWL

[4] = target: T4, Ras-GTPase-activating protein-binding protein 1 (G3BP1) NTF2 domain (human, UniProt Q13283 11-133); assay: as above
T4 construct: G3BP1, NTF2 domain; limits in Dataset EV2; source: E. coli BL21 DE (Gold), purified
T4 sequence (Q13283 11-133): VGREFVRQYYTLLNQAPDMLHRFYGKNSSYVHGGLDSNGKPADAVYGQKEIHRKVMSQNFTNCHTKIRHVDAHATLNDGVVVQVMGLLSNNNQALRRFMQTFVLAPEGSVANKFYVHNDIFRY

[5] = target: importin subunit α-8 (KPNA7) ARM domain; assay: fluorescence polarisation; displacement as a1, with a FITC-labelled probe sampling the major pocket of the ARM domain (KPNA4, KPNA7)
Sequence of importin subunit α-8 (KPNA7) ARM domain (chain, as listed by the source): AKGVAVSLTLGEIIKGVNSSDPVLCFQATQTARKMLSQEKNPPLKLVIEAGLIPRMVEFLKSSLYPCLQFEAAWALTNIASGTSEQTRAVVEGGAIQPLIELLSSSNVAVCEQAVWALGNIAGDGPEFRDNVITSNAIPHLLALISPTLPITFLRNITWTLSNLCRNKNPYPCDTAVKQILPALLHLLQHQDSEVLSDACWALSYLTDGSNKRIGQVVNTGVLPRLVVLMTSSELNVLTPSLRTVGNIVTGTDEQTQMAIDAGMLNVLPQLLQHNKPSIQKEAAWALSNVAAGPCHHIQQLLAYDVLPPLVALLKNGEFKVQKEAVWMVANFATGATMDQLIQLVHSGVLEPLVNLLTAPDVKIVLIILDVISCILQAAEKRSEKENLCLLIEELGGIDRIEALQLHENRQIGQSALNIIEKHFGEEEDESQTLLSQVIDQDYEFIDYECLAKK

[6] = target: T5, FITC-MYC (also: FITC label, position not given here); assay: fluorescence polarisation; saturation binding: dilution series of the protein domain added to 10 nM FITC-labelled peptide; 50 mM sodium phosphate pH 7.4, 0.05% Tween (protein dialysed in 50 mM sodium phosphate with 1 mM DTT; CASK kinase domain with 100 mM NaCl in addition); quadratic fit; technical triplets
T5 chain: PAAKRVKLD

[7] = target: T6, FITC-NCOR2 (also: FITC label, position not given here); assay: as above
T6 chain: PKRTYDMMEGRVGRAI

[8] = target: T7, CREBBP KIX (human, UniProt Q92793 587-666); assay: fluorescence polarisation; displacement: unlabelled peptide titrated onto a complex of FITC-labelled peptide (10 nM) and protein domain (1-2x KD); 50 mM sodium phosphate buffer pH 7.4 (CASK: plus 100 mM NaCl); KD calculated from IC50; technical triplets
T7 construct: CREBBP, KIX domain; limits in Dataset EV2; source: E. coli BL21 DE (Gold), purified
T7 sequence (Q92793 587-666): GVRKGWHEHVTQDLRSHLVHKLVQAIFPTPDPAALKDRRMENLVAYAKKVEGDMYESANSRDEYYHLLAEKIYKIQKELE

[9] = target: T8, PPIA (human, UniProt P62937 1-165); assay: fluorescence polarisation; saturation binding: dilution series of the protein domain added to 10 nM FITC-labelled peptide; 50 mM sodium phosphate pH 7.4, 0.05% Tween (protein dialysed in 50 mM sodium phosphate with 1 mM DTT; CASK kinase domain with 100 mM NaCl in addition); quadratic fit; technical triplets
T8 construct: PPIA, human; source: E. coli BL21 (DE3) Gold, purified (glutathione or Ni2+ beads)
T8 sequence (P62937 whole entry, the tested form may be a part): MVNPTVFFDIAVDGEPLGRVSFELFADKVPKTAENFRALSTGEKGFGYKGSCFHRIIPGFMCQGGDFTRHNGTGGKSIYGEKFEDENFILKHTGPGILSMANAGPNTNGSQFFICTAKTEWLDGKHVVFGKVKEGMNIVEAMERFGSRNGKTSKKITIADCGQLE

[10] = target: T9, E3 ubiquitin-protein ligase NEDD4 (NEDD4) WW2 domain, GST-tagged (human); assay: fluorescence polarisation
T9 construct: also called NEDD4 WW2-GST
T9 sequence (P46934 whole entry, the tested form may be a part): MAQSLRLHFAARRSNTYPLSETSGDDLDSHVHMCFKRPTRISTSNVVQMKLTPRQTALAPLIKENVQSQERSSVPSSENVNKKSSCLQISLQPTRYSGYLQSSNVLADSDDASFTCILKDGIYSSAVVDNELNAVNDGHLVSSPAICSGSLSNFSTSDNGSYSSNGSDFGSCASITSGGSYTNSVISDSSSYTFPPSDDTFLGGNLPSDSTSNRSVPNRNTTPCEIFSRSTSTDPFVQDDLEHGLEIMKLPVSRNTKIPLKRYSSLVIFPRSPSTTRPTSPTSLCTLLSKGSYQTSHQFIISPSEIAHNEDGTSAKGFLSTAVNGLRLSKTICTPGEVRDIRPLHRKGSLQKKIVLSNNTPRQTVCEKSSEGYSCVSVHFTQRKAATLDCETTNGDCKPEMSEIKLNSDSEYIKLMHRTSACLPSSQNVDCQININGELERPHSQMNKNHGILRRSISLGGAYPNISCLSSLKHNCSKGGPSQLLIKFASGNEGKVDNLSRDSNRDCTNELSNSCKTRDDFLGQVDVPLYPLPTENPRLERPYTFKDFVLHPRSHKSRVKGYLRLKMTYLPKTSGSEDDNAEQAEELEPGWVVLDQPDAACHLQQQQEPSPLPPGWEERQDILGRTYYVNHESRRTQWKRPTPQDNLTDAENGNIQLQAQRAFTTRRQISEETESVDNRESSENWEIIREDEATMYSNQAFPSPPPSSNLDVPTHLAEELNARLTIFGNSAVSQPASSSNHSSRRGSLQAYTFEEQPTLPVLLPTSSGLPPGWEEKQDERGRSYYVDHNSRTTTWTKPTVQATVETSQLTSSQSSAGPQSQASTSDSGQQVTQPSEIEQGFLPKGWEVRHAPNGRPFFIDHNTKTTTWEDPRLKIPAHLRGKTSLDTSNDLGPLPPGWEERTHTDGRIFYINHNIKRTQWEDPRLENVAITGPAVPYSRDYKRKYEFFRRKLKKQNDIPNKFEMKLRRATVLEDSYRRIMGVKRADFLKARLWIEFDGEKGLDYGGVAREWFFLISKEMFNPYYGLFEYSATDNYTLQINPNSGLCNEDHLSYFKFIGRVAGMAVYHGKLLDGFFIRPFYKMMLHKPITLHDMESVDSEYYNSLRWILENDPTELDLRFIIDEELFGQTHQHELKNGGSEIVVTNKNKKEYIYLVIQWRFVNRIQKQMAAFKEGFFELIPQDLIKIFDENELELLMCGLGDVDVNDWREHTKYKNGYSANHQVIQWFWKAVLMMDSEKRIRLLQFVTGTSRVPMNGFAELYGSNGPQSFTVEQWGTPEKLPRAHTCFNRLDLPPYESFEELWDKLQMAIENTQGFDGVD

[11] = target: T10, ADP-ribosylation factor-binding protein GGA1 (GGA1) VHS domain (human, UniProt Q9UJY5 17-147); assay: fluorescence polarisation; displacement: unlabelled peptide titrated onto a complex of FITC-labelled peptide (10 nM) and protein domain (1-2x KD); 50 mM sodium phosphate buffer pH 7.4 (CASK: plus 100 mM NaCl); KD calculated from IC50; technical triplets
T10 construct: GGA1, VHS domain; limits in Dataset EV2; source: E. coli BL21 DE (Gold), purified
T10 sequence (looked up): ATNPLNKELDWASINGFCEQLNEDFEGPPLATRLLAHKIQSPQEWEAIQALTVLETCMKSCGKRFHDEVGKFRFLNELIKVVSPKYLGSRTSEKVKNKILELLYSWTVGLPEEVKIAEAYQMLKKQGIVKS

[12] = target: T11, importin subunit α-3 (KPNA4) ARM domain (human); assay: fluorescence polarisation; displacement as a1, with a FITC-labelled probe sampling the major pocket of the ARM domain (KPNA4, KPNA7)
T11 chain: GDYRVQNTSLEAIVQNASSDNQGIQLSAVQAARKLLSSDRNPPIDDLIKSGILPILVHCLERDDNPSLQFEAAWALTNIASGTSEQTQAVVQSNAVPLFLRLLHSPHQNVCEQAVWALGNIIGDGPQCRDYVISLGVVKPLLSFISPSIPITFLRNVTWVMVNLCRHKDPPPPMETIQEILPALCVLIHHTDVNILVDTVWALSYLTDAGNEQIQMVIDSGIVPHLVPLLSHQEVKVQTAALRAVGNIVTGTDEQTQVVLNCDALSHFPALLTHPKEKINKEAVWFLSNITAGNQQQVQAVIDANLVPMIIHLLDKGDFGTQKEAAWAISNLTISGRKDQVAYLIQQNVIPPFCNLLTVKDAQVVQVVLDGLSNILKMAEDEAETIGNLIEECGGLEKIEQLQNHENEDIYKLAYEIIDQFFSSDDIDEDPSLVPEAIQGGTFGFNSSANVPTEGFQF

[13] = target: T11, importin subunit α-3 (KPNA4) ARM domain; assay: fluorescence polarisation; displacement as a1, with a FITC-labelled probe sampling the minor pocket of the KPNA4 ARM domain
[14] = target: T12, Clathrin N-terminal domain (CLTC NTD) (human); assay: fluorescence polarisation
T12 construct: also called Clathrin NTD

[15] = target: T13, Ras-GTPase-activating protein-binding protein 2 (G3BP2) NTF2 domain (human, UniProt Q9UN86 11-133); assay: fluorescence polarisation
T13 sequence (looked up): T2 sequence (looked up)

[16] = target: T14, Ras-GTPase-activating protein-binding protein 1 (G3BP1) NTF2 domain (human, UniProt Q13283 11-133); assay: fluorescence polarisation
T14 construct: also called G3BP1 NTF1
T14 sequence (Q13283 11-133): as the sequence (Q13283 11-133) above

B1: BCL11A_(44-56) wild-type peptide (peptide)
peptide: DLLTCGQAQMNFPY
notes: BCL11A residues 44-56; source: synthetic peptide, bought: Genecust
B1 showed a Kd [1] of 1100 µM.

B2: BCL11A_(44-56) C48F peptide (peptide)
peptide: DLLTFGQAQMNFPY
notes: BCL11A residues 44-56; also called C47F BCL11A; source: synthetic peptide, bought: Genecust
In the case of B2, the Kd [2] is reported as 215 µM and the Kd [1] is reported as 361 µM.

B3: FANCA 1-16 S4L peptide (peptide)
peptide: MSDLWVPNSASGQDPG
notes: FANCA residues 1-16; also called FANCA S4L mutant; source: synthetic peptide, bought: Genecust
B3 showed a Kd [3] of 15 µM.

B4: NSD1 1793-1808 L1797P peptide (peptide)
peptide: EFPVPFFGSNDYLWTH
notes: also called NSD1 L1797P mutant; source: synthetic peptide, bought: Genecust
B4 was tested, and the Kd [4] was 49 µM.

B5: CDC45_(152-166) wild-type peptide (peptide)
peptide: EPSEKRTRLEEEIVEY
notes: also called CDC45 R157C wild-type; source: synthetic peptide, bought: Genecust
B5 was tested, and the “KD, major pocket” value [5] was 6.6 µM.

B6: Importin subunit alpha-3 (KPNA4) ARM domain (domain or fragment)
chain: T11 chain
B6 gave a Kd [6] of 0.008 µM and a Kd [7] of 0.03 µM.

B7: MITF 258-271 wild-type peptide (peptide)
peptide: SGNLIDLYGNQGLPY
notes: also called MITF Y265C wild-type; source: synthetic peptide, bought: Genecust
For B7, the Kd [1] was 191 µM.

B8: KMT2A 2847-2861 wild-type peptide (peptide)
peptide: SDIMDFVLKNTPSMQY
notes: also called KMT2A L2854Q wild-type; source: synthetic peptide, bought: Genecust
B8 was tested, and the Kd [8] was 380 µM.

B9: KMT2A 2847-2861 L2854Q peptide (peptide)
peptide: SDIMDFVQKNTPSMQY
notes: also called KMT2A L2854Q mutant; source: synthetic peptide, bought: Genecust
Binder B9 has a Kd [8] of 340 µM.

B10: CTNNB1_(27-42) S33F peptide (peptide)
peptide: QQSYLDFGIHSGATTT
notes: β-catenin residues 27-42; also called CTNNB1 S33F mutant; source: synthetic peptide, bought: Genecust
In the case of B10, the Kd [4] is reported as 57 µM.

B11: FITC-SPHK2 (peptide)
chain: EQVEYGPLQAQM
modifications: also: FITC label, position not given here
B11 was tested, and the Kd [9] was 42 µM.

B12: FITC-UL56(HHV-2) (peptide)
chain: TDSPPPYSAG
modifications: also: FITC label, position not given here
B12 showed a Kd [10] of 4.1 µM.

B13: MAPT 717-731 R723W peptide (peptide)
peptide: YSGDTSPWHLSNVSST
notes: microtubule-associated protein tau residues 717-731; also called MAPT R723W mutant; source: synthetic peptide, bought: Genecust
B13 showed a Kd [3] of 39 µM.

B14: CDC45_(152-166) R157C peptide (peptide)
peptide: EPSEKCTRLEEEIVEY
notes: also called CDC45 R157C mutant; source: synthetic peptide, bought: Genecust
B14 was tested, and the “KD, major pocket” value [5] was 380 µM.

B15: myosin-9 peptide (MYH9_(1419-1433)) wild-type (peptide)
peptide: YQQELDDLLVDLDHQR
notes: MYH9 residues 1419-1433; also called MYH9 D1424H wild-type; source: synthetic peptide, bought: Genecust
With B15 the Kd [11] was 101 µM.

B16: MYH9_(1419-1433) D1424H peptide (peptide)
peptide: YQQELDHLLVDLDHQR
notes: MYH9 residues 1419-1433; also called MYH9 D1424H mutant; source: synthetic peptide, bought: Genecust
Binder B16 has a Kd [11] of 306 µM.

B17: ABRAXAS1_(349-364) R361Q peptide (peptide)
peptide: LDLDDRWQFKRSQLLD
notes: also called ABRAXAS1 R361Q mutant; source: synthetic peptide, bought: Genecust
For B17, the “KD, major pocket” value [12] was 75 µM and the “KD, minor pocket” value [13] was 297 µM.

B18: Importin subunit alpha-8 (KPNA7) ARM domain (domain or fragment)
chain: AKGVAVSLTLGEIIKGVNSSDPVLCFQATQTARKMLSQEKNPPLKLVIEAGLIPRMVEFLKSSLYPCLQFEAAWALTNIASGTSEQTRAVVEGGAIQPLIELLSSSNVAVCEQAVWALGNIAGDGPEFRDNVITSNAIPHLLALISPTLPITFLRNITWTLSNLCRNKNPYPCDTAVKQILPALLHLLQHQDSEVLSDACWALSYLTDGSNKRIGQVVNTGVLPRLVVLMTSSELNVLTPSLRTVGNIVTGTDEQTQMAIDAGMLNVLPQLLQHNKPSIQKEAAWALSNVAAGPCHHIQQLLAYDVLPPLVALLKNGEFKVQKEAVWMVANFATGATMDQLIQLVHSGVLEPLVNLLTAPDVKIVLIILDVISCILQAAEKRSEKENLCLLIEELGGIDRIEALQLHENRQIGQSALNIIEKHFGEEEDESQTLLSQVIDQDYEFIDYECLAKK
Binder B18 has a Kd [6] of 7.5 µM and a Kd [7] of 57 µM.

B19: FITC-NSP3 (peptide)
chain: SVDLITFDSV
modifications: also: FITC label, position not given here
For B19, the Kd [14] was 21 µM.

B20: FITC-N_SARS-CoV-2 (peptide)
chain: APRITFGGPSDS
modifications: also: FITC label, position not given here
Binder B20 has a Kd [15] of 5.4 µM and a Kd [16] of 2.51 µM.

B21: MITF 258-271 Y265C peptide (peptide)
peptide: SGNLIDLCGNQGLPY
notes: also called MITF Y265C mutant; source: synthetic peptide, bought: Genecust
For B21, the Kd [1] was 206 µM.
